According to patent US20230303715A1:

Columns and labels:
FcγRIIb [1] = target: FcγRIIb (UniProt P31994); experiment: SPR Biacore, Ab on HER2 chip
FcγRIIa [2] = target: FcγRIIa (UniProt P12318); experiment: SPR Biacore, Ab on HER2 chip
FcγRIIb [3] = target: FcγRIIb (UniProt P31994); experiment: SPR; KD wt/KD mut vs 16588
FcγRIIa [4] = target: FcγRIIa (UniProt P12318); experiment: SPR; KD wt/KD mut vs 16588
FcγRI = FcγRI (UniProt P12314); experiment: SPR ProteOn, Ab on HER2 chip, equilibrium fit
[5] = target: biotinylated human FcRn (produced by Protocol 1) (human) (UniProt P55899); experiment: SPR; KD wt/KD mut vs parental variant
[6] = target: biotinylated human FcRn (produced by Protocol 1) (human) (UniProt P55899); experiment: SPR Biacore T200, FcRn on neutravidin, pH 6
[7] = target: soluble human FcRn (human) (UniProt P55899); experiment: SPR ProteOn, Ab on protein L, pH 6.0
FcγRIIb [8] = target: FcγRIIb (UniProt P31994); experiment: SPR ProteOn, Ab on HER2 chip, equilibrium fit
FcγRIII [9] = target: FcγRIII (UniProt P08637); experiment: SPR ProteOn, Ab on HER2 chip, equilibrium fit
Chain of FcγRIII (P08637 17-208 limits assumed): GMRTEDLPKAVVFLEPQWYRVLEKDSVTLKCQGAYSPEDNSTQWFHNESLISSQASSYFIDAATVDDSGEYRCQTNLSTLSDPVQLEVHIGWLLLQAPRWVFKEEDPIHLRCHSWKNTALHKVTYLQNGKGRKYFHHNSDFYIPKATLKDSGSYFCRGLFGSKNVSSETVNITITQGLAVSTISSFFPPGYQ

FcγRIIaR [10] = target: FcγRIIaR (UniProt P12318); experiment: SPR ProteOn, Ab on HER2 chip, equilibrium fit
Chain of FcγRIIaR (P12318 34-217 H167R limits assumed): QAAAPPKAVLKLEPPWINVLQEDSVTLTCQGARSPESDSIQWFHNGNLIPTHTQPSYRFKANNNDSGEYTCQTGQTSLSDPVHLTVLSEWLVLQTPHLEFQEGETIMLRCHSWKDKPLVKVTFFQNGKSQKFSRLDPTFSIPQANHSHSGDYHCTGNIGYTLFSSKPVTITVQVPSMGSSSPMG

FcγRIIaH [11] = target: FcγRIIaH (UniProt P12318); experiment: SPR ProteOn, Ab on HER2 chip, equilibrium fit
Chain of FcγRIIaH (P12318 34-217 limits assumed): as the sequence (P12318 34-217 H167R limits assumed) above, with R134H counted along it

FcγRIIb [12] = target: FcγRIIb (UniProt P31994); experiment: SPR; KD wt/KD mut vs parental variant
FcγRIIaH [13] = target: FcγRIIaH (UniProt P12318); experiment: SPR; KD wt/KD mut vs parental variant
FcγRIIaR [14] = target: FcγRIIaR (UniProt P12318); experiment: SPR; KD wt/KD mut vs parental variant
FcγRIIb [15] = target: FcγRIIb (UniProt P31994); experiment: SPR Biacore, Ab on HER2 chip; KD called ambiguous
FcγRIIa [16] = target: FcγRIIa (UniProt P12318); experiment: SPR Biacore, Ab on HER2 chip; KD called ambiguous
FcγRIII [17] = target: FcγRIII (UniProt P08637); experiment: SPR; KD wt/KD mut vs parental variant

Chain of FcγRIIb (P31994 43-217 limits assumed): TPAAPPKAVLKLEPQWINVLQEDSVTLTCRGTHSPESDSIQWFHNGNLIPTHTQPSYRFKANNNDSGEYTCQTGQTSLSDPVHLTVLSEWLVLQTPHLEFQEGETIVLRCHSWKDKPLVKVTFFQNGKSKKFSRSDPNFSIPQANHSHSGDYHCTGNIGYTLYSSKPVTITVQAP
Chain of FcγRI (P12314 16-292 limits assumed): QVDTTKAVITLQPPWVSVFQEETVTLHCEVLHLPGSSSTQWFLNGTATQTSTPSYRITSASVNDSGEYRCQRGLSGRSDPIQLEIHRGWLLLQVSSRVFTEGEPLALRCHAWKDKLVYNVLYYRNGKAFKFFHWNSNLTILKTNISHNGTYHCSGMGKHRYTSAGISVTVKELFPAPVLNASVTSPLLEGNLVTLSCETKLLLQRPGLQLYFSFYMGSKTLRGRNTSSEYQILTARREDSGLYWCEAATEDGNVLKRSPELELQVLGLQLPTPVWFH

Kd (FcγRIIb [1]) [nM] | Kd (FcγRIIa [2]) [nM] | Relative FcγRIIb Binding (FcγRIIb [3]) | Relative FcγRIIa Binding (FcγRIIa [4]) | Substance | other results
3460 |  |  |  | trastuzumab Scaffold 1 variant 19304 (T289W) (antibody) | 
2950 | 941 | 1.29 | 1.17 | trastuzumab Scaffold 1 variant 19319 (K334R) (antibody) | 
 |  |  |  | trastuzumab Scaffold 6 (N297A) variant v31514 (A287F_M428F) (antibody) | Kd (FcγRI): 16.2 nM; Fold [5]: 1.3; Kd [6]: 369 nM
3720 | 758 | 1.02 | 1.45 | trastuzumab Scaffold 1 variant 19322 (V259C_L306C) (antibody) | 
3810 | 1040 |  |  | trastuzumab Scaffold 1 variant 19306 (A339Q) (antibody) | 
3670 | 1130 | 1.03 | 0.98 | trastuzumab Scaffold 1 variant 19321 (A287C_L306C) (antibody) | Kd [7]: 693 nM
 |  |  |  | trastuzumab variant v17078 (WT) (antibody) | Kd (FcγRIIb [8]): 6850 nM; Kd (FcγRIII [9]): 1480 nM; Kd (FcγRIIaR [10]): 2070 nM; Kd (FcγRI): 0.0894 nM; Kd [6]: 292 nM
 |  |  |  | trastuzumab full-size antibody with N297A (Scaffold 6), variant v31513 | Kd (FcγRI): 25.7 nM; Kd [6]: 467 nM
 |  |  |  | trastuzumab Scaffold 6 (N297A) variant v31515 (A287F_T250V) (antibody) | Kd (FcγRI): 18.7 nM; Fold [5]: 0.8; Kd [6]: 553 nM
3220 | 1140 | 1.18 | 0.97 | trastuzumab Scaffold 1 variant 19327 (L242C_I336C) (antibody) | 
5460 | 1450 | 0.7 | 0.76 | trastuzumab Scaffold 1 variant 19307 (A378W) (antibody) | 
 |  |  |  | trastuzumab Scaffold 7 (S239D/I332E) variant v31520 (M428F_T250V) (antibody) | Kd (FcγRIIb [8]): 1130 nM; Kd (FcγRIII [9]): 32.1 nM; Kd (FcγRIIaH [11]): 644 nM; Kd (FcγRIIaR [10]): 667 nM; Kd (FcγRI): 0.0145 nM; Fold (FcγRIIb [12]): 1.1; Fold [5]: 1.2; Fold (FcγRIIaH [13]): 1.2; Fold (FcγRIIaR [14]): 1.2; Kd [6]: 286 nM
3050 | 899 | 1.24 | 1.22 | trastuzumab Scaffold 1 variant 19310 (T250V) (antibody) | Kd [7]: 821 nM
2050 | 689 | 1.85 | 1.6 | trastuzumab Scaffold 1 variant 19328 (T289C_S304C) (antibody) | 
3800 |  |  |  | trastuzumab full-size antibody with homodimeric IgG1 Fc (Scaffold 1), variant 16588 (WT) | Kd [7]: 641 nM
16900 | 63700 | 0.23 | 0.02 | trastuzumab Scaffold 1 variant 19331 (V240C_I332C) (antibody) | 
4030 | 1240 | 0.94 | 0.89 | trastuzumab Scaffold 1 variant 19313 (V308I) (antibody) | 
3490 |  |  |  | trastuzumab Scaffold 1 variant 19314 (Y319F) (antibody) | 
 | 1070 |  |  | trastuzumab Scaffold 1 variant 19303 (A287F) (antibody) | Kd [7]: 690 nM

Kd (FcγRIIb [1]) [nM] | Kd (FcγRIIa [2]) [nM] | Relative FcγRIIb Binding (FcγRIIb [3]) | Relative FcγRIIa Binding (FcγRIIa [4]) | Substance | other results
3750 | 1160 | 1.01 | 0.94 | trastuzumab Scaffold 1 variant 19316 (M252S) (antibody) | 
5760 | 2020 | 0.66 | 0.55 | trastuzumab Scaffold 1 variant 19318 (L314M) (antibody) | 
 |  |  |  | trastuzumab Scaffold 6 (N297A) variant v31516 (M428F_T250V) (antibody) | Kd (FcγRI): 20 nM; Kd [6]: 360 nM
3820 | 1540 | 0.99 | 0.71 | trastuzumab Scaffold 1 variant 19320 (L242C_K334C) (antibody) | Kd [7]: 645 nM
 |  | 1.35 | 1.14 | trastuzumab Scaffold 1 variant 19326 (V263C_V302C) (antibody) | Kd (FcγRIIb [15]): 2820 nM; Kd (FcγRIIa [16]): 963 nM; Kd [7]: 604 nM
3680 | 1150 | 1.03 | 0.96 | trastuzumab Scaffold 1 variant 19317 (L309Q) (antibody) | Kd [7]: 1000 nM
9830 | 2930 | 0.39 | 0.38 | trastuzumab Scaffold 1 variant 19329 (F243C_T260C) (antibody) | 
17600 | 3660 | 0.22 | 0.3 | trastuzumab Scaffold 1 variant 19323 (R292C_V302C) (antibody) | 
5070 |  |  |  | trastuzumab Scaffold 1 variant 19309 (L242I) (antibody) | 
2220 | 745 | 1.71 | 1.48 | trastuzumab Scaffold 1 variant 19311 (F275I) (antibody) | 
14000 |  |  |  | trastuzumab Scaffold 1 variant 19324 (D249C_P257C) (antibody) | 
3720 | 1170 | 1.02 | 0.94 | trastuzumab Scaffold 1 variant 19312 (V279I) (antibody) | 
 |  |  |  | trastuzumab full-size antibody with S239D and I332E (Scaffold 7), variant v31517 | Kd (FcγRIIb [8]): 1250 nM; Kd (FcγRIII [9]): 32 nM; Kd (FcγRIIaH [11]): 775 nM; Kd (FcγRIIaR [10]): 775 nM; Kd [6]: 337 nM
3510 | 1030 | 1.08 | 1.06 | trastuzumab Scaffold 1 variant 19308 (M428F) (antibody) | Kd [7]: 464 nM
 |  |  |  | trastuzumab Scaffold 7 (S239D/I332E) variant v31518 (A287F_M428F) (antibody) | Kd (FcγRIIb [8]): 1150 nM; Kd (FcγRIII [9]): 30.9 nM; Kd (FcγRIIaH [11]): 671 nM; Kd (FcγRIIaR [10]): 691 nM; Kd (FcγRI): 0.0136 nM; Fold (FcγRIII [17]): 1; Fold [5]: 1.2; Fold (FcγRIIaH [13]): 1.2; Kd [6]: 275 nM
2100 | 640 | 1.81 | 1.72 | trastuzumab Scaffold 1 variant 19305 (A339W) (antibody) | 
4910 |  |  |  | trastuzumab Scaffold 1 variant 19325 (F275C_S304C) (antibody) | 
 |  |  |  | trastuzumab Scaffold 7 (S239D/I332E) variant v31519 (A287F_T250V) (antibody) | Kd (FcγRIII [9]): 29 nM; Kd (FcγRIIaH [11]): 655 nM; Kd (FcγRIIaR [10]): 685 nM; Kd (FcγRI): 0.0108 nM; Kd [6]: 470 nM
